The experiment concerns the target Human Myelin Basic Protein (Homo sapiens, UniProt P02686). Nature of the experiment: Phage display library screening (Example 2, Python script analysis), binding to Human Myelin Basic Protein. Further details: Enzo 200-606-M001 from human; purchased Enzo 200-606-M001; host or cells: human brain (tissue-derived). To be noted: R3 Myelin Basic Protein; combined unique sequence count, Python/R script analysis. On the procedure:
Phage display library screens were used to identify peptides that bind to target proteins (including specific laminin trimers) that are expressed in human nerves, as described in Table 3. These screens were also carried out to identify peptides that could bind selectively to nerves versus muscle. Such peptides could therefore be useful for systemic in-vivo labeling of nerves during fluorescence assisted surgery. Specifically, m 13 phage libraries expressing 7 or 12 random amino acid peptides, or a cyclic peptide CX7C, on the N-terminus of the minor coat protein pIII (New England Biolabs; NEB) were processed through multiple rounds of selection for binding to target proteins expressed in nerves, or to excised human nerves, nerve extracts, or muscle, as described further below.
For screening against the specified target proteins in Table 1, including LN211, LN411, LN421, and LN521, the phage library was processed by up to 4 binding and wash cycles. For selection, phage libraries were incubated for up to 24 hours at 4° C. in 96 well plates that had been coated with one of the target proteins. Plates were then washed with PBS and phage were eluted using 0.2M glycine pH 2.0. Phage supernatants where then neutralized with Tris pH 9.0 prior to plating on TGI bacteria and LB agar plates. Colonies were counted to determine titer followed by DNA preparation of pools of phage and NextGen sequencing. After rounds of selection, phage were pooled and amplified for iterative selection. Phage that were bound at each round were sequenced. NextGen sequencing of pools after 2, 3 and 4 rounds of selection was used to isolate candidate sequences that were analyzed further to identify those that specifically bound each unique target protein.
Python Script Analysis: For all NEB sequence datasets, a python script was used to translate, trim, and filter the peptide sequences. The script translated the nucleotide sequences, translating amber codons as glutamine in peptide sequences, and then trimmed the end sequences that come from the vector. Secondly, the script combined the unique counts of trimmed peptides with identical sequences. […] Another python script was used to group peptides from different assays according to protein target (Myelin Protein Zero, Myelin Proteolipid Protein, Myelin Basic Protein, and Nidogen-2) and also combine the unique sequence counts for each peptide. An R script was written to merge the peptide sequences from different data files and determine peptides specific for each protein target but absent from different protein binding datasets. Peptide sequences were ranked by unique sequence count.
Chain of Human Myelin Basic Protein (P02686 134-304): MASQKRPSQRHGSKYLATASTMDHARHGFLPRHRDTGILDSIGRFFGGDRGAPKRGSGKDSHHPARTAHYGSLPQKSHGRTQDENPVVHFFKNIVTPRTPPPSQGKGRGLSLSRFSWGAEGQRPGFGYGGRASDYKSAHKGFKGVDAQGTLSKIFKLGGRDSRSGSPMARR
Turning to “AISWKGF (R3 Myelin Basic Protein-binding peptide)”, the Count is reported as 6.
As for “HFLRPSD (R3 Myelin Basic Protein-binding peptide)”, the figure is 7; as for “GEPALVT (R3 Myelin Basic Protein-binding peptide)”, 6.
On to “WVPDRSL (R3 Myelin Basic Protein-binding peptide)”, for which the Count is on record as 6.
As for “ALRDTRV (R3 Myelin Basic Protein-binding peptide)”, the figure is 6.
As for “NLKLWTR (R3 Myelin Basic Protein-binding peptide)”, the figure is 7.
As for “HLLKTHS (R3 Myelin Basic Protein-binding peptide)”, the figure is 7; as for “LTKSLNH (R3 Myelin Basic Protein-binding peptide)”, 7.
With “SSMRYNS (R3 Myelin Basic Protein-binding peptide)”, the Count is recorded as 6.
As for “AQLGAFR (R3 Myelin Basic Protein-binding peptide)”, the figure is 6; as for “KMSLAPP (R3 Myelin Basic Protein-binding peptide)”, 6; as for “DVRIWTL (R3 Myelin Basic Protein-binding peptide)”, 6.
As for “HFTFFPI (R3 Myelin Basic Protein-binding peptide)”, the figure is 6.
As for “TGPSSAV (R3 Myelin Basic Protein-binding peptide)”, the figure is 6; as for “NTSLSFK (R3 Myelin Basic Protein-binding peptide)”, 8.
As to “ANLSRSV (R3 Myelin Basic Protein-binding peptide)”, the Count is on record as 9.
As for “VLSPYHN (R3 Myelin Basic Protein-binding peptide)”, the figure is 6.
As for “SIRMTEI (R3 Myelin Basic Protein-binding peptide)”, the figure is 7; as for “CTMTNQYDC (R3 Myelin Basic Protein-binding peptide)”, 6; as for “ELKSLRF (R3 Myelin Basic Protein-binding peptide)”, 6.
As for “SVGLPTK (R3 Myelin Basic Protein-binding peptide)”, the figure is 6.
On to “MPLLELP (R3 Myelin Basic Protein-binding peptide)”, for which the Count is listed as 7.
As for “HSSATMS (R3 Myelin Basic Protein-binding peptide)”, the figure is 6.
As for “DVVKDVI (R3 Myelin Basic Protein-binding peptide)”, the figure is 7; as for “ASNTSKG (R3 Myelin Basic Protein-binding peptide)”, 7; as for “SLDHLRL (R3 Myelin Basic Protein-binding peptide)”, 6.
As for “RGHPSQL (R3 Myelin Basic Protein-binding peptide)”, the figure is 6.
Consider “MQRLGAD (R3 Myelin Basic Protein-binding peptide)”, for which the Count amounted to 6.
For the substance “AIPPRKL (R3 Myelin Basic Protein-binding peptide)”, the Count was 6.
As for “TPVLWLP (R3 Myelin Basic Protein-binding peptide)”, the figure is 6; as for “TSPPLAH (R3 Myelin Basic Protein-binding peptide)”, 8; as for “LMLPQLE (R3 Myelin Basic Protein-binding peptide)”, 6.
As for “INFPFAV (R3 Myelin Basic Protein-binding peptide)”, the figure is 6.
As for “WSLPLLS (R3 Myelin Basic Protein-binding peptide)”, the figure is 7; as for “HQMRTML (R3 Myelin Basic Protein-binding peptide)”, 6; as for “RVIPSTT (R3 Myelin Basic Protein-binding peptide)”, 6.
As for “NLLQGVM (R3 Myelin Basic Protein-binding peptide)”, the Count came out at 7.
As for “IPIPYRT (R3 Myelin Basic Protein-binding peptide)”, the figure is 6; as for “GPITHAI (R3 Myelin Basic Protein-binding peptide)”, 7.
As for “RTTDWWT (R3 Myelin Basic Protein-binding peptide)”, the figure is 6.
In the case of “SGNLKKA (R3 Myelin Basic Protein-binding peptide)”, the Count is reported as 7.
For the substance “WSPRWPS (R3 Myelin Basic Protein-binding peptide)”, the Count is recorded as 7.
“TSRLVST (R3 Myelin Basic Protein-binding peptide)”: the Count is recorded as 8.
Turning to “VGTFWTR (R3 Myelin Basic Protein-binding peptide)”, the Count is 6.
With “ETHYKIA (R3 Myelin Basic Protein-binding peptide)”, the Count is 6.
As for “YTASPRW (R3 Myelin Basic Protein-binding peptide)”, the figure is 6.
As for “YPTYLSY (R3 Myelin Basic Protein-binding peptide)”, the Count was 6.
Turning to “GSPYGWG (R3 Myelin Basic Protein-binding peptide)”, the Count is 6.
As for “SSGMLSK (R3 Myelin Basic Protein-binding peptide)”, the figure is 7.
As for “TGNLRLY (R3 Myelin Basic Protein-binding peptide)”, the figure is 9; as for “SKLAGFP (R3 Myelin Basic Protein-binding peptide)”, 6.
As for “SVEYGQL (R3 Myelin Basic Protein-binding peptide)”, the figure is 9; as for “YVNRVKQ (R3 Myelin Basic Protein-binding peptide)”, 6.
Regarding “YLPPPLP (R3 Myelin Basic Protein-binding peptide)”, the Count is listed as 7.
As for “SIQTSAM (R3 Myelin Basic Protein-binding peptide)”, the figure is 6.
As for “HMAGVNQ (R3 Myelin Basic Protein-binding peptide)”, the figure is 7; as for “TPVRLNT (R3 Myelin Basic Protein-binding peptide)”, 6.
As for “FVLPNKN (R3 Myelin Basic Protein-binding peptide)”, the figure is 8; as for “CPRMNNPLC (R3 Myelin Basic Protein-binding peptide)”, 7.
Consider “GQWWKML (R3 Myelin Basic Protein-binding peptide)”, for which the Count was 6.
As for “IGTRWHQ (R3 Myelin Basic Protein-binding peptide)”, the figure is 6; as for “TIRVAHT (R3 Myelin Basic Protein-binding peptide)”, 6.
As for “SLKTTNP (R3 Myelin Basic Protein-binding peptide)”, the figure is 6; as for “VRGTPNH (R3 Myelin Basic Protein-binding peptide)”, 6; as for “VSFTLEP (R3 Myelin Basic Protein-binding peptide)”, 7.
As for “NTPKVLA (R3 Myelin Basic Protein-binding peptide)”, the figure is 10; as for “FDLLARK (R3 Myelin Basic Protein-binding peptide)”, 6; as for “TPGRATL (R3 Myelin Basic Protein-binding peptide)”, 6.
Consider “TRIPILL (R3 Myelin Basic Protein-binding peptide)”, for which the Count is 6.
As for “WPDLRIL (R3 Myelin Basic Protein-binding peptide)”, the figure is 7; as for “AAGQRSF (R3 Myelin Basic Protein-binding peptide)”, 7.
Turning to “GVAEVGL (R3 Myelin Basic Protein-binding peptide)”, the Count came to 6.
Turning to “SRPTRVP (R3 Myelin Basic Protein-binding peptide)”, the Count amounted to 9.
As for “NFAQHMQ (R3 Myelin Basic Protein-binding peptide)”, the figure is 9.
As for “KNSIAPR (R3 Myelin Basic Protein-binding peptide)”, the figure is 8.
As for “IPYSQMP (R3 Myelin Basic Protein-binding peptide)”, the figure is 6.

Values taken from patent publication US20240207421A1, “NERVE TARGETING PEPTIDES AND METHODS OF USE” (ALUME BIOSCIENCES, INC., priority 2020, published 2024).
